Measured values as given in publication PMC5473807, “Distribution and kinetics of the Kv1.3-blocking peptide HsTX1[R14A] in experimental rats” (Scientific Reports, 2017).

What was measured:
[1] = Distribution in the blood compartments; type: in vivo; conditions: rat, i.v., 0-4 h
Protocol: (§1) The analysis of [^64Cu]Cu-NOTA-HsTX1[R14A] degradation was analysed in one rat after single intravenous injection. The gas-anaesthetised (8% desflurane, 30% oxygen, air) rat was prepared on a heating bed for the blood sampling. A needle catheter was inserted in a tail vein and fixed for the injection of the radiotracer and supplementation of the withdrawn volume by E-153 (electrolyte infusion solution). A small incision on the right hind limb was made and a small superficial artery was exposed. A thin tube (polyethylene, 0.3 mm inner and 0.6 mm outer diameter) was inserted, moved to the femoral artery and fixed. Arterial blood samples were collected at 1, 3, 5, 10, 20, 30, 120 min p.i of the [^64Cu]Cu-NOTA-HsTX1[R14A]. After the end of experiment the anaesthetised animals were euthanised by infusion of KCl solution. For the differentiation of the activity distribution in the blood compartments (Fig. 3b) were blood samples centrifuged (3 min at 14,000 × g) to obtain the plasma (plasma total and blood cells in the precipitate). One kidney was homogenised with PBS (30% w/v) and then centrifuged as described for the blood samples. Urine was treated in analogy. All the supernatants from blood, kidney and urine samples were mixed with equal volume of MeCN to precipitate the protein fraction. The samples were again centrifuged (3 min at 14,000 × g), resulting in the precipitate the protein bound fraction (plasma proteins) and the supernatants (e.g. plasma water fraction) were analysed by radio-TLC with RP18 aluminium foil, MeCN/0.1% TFA mixed with H2O/0.1% TFA (v/v 1:1). The TLC plates were measured by radioluminography as described above. Aliquots of the whole blood samples and of all supernatants were measured for the ^64Cu activity concentration in a well counter.

[2] = Tolerability in the animal experiments; type: in vivo, rat; conditions: rats, injections of up to 0.1 mg peptide/kg body weight, also anesthetised animals
[3] = Metabolite analysis by radio-TLC; type: in vivo; conditions: rat, i.v., one rat
Protocol: as §1

[4] = Stability of the 64Cu complex against EDTA; type: physicochemical; conditions: 0.1 M aqueous EDTA solution, radio-TLC on iTLC-SA plates
Protocol: The radiolabelling yield and stability of ^64Cu-labelled peptide conjugate were monitored with radio-TLC (thin layer chromatography). Thin layer chromatograms were scanned by using a thin layer analyser (Rita Star, Raytest, Germany). The purity of the radiolabelled peptide was assayed using analytical RP-HPLC. Radio-HPLC was performed on a Knauer Smartline System fitted with an activity detector (Ramona Star, Raytest, Germany) using an Aqua C18 column (Phenomenex, 4.6 mm × 250 mm, 5 µm, 125 Å) with a gradient eluent of H2O + 0.05% TFA (A) and acetonitrile + 0.05% TFA (B); in 20 min 0–60% of B, 10 min 60–95% of B, 1 mL/min.
^64Cu-NOTA-HsTX1[R14A] was prepared by incubating ~1.2–24 nmol (5–100 µg) of NOTA-HsTX1[R14A]/100 µL (1 mg/mL H2O stock solution) with ^64CuCl2 (~35–55 MBq) dissolved in 0.2 mL of 0.1 M 2-(N-morpholino)ethansulfonic acid (MES)/NaOH buffer (pH 6.0) at 37 °C for 30 min. Formation of the ^64Cu^II complex was verified by radio-TLC on iTLC-SA plates (instant TLC medium impregnated with […], Agilent Technology) using H2O + 0.1% HCOOH as mobile phase (^64Cu(HCOO)2, R f = 0.4, ^64Cu-NOTA-peptide, R f = 0). The stability of the ^64Cu^II formed was assessed in the presence of 0.1 M EDTA solution. Radio-TLC was performed with iTLC-SA plates (Agilent Technology) using 0.1 M aqueous EDTA solution [(^64Cu]Cu-NOTA-peptide, R f = 0, ^64Cu-EDTA, R f = 0.9).

CSCC[C@@H]1NC(=O)[C@@H]2CSSC[C@H](NC(=O)[C@H](CO)NC(=O)[C@H](C)NC(=O)COCCOCCNC(=O)CN3CCN(CC(=O)O)CCN(CC(=O)O)CC3)C(=O)N[C@@H](CCCNC(=N)N)C(=O)N[C@@H]([C@@H](C)O)C(=O)N3CCC[C@H]3C(=O)N[C@@H](CCCCN)C(=O)N[C@@H](CC(=O)O)C(=O)N[C@H]3CSSC[C@H](NC(=O)[C@H](CCCCN)NC(=O)[C@H](CCCNC(=N)N)NC(=O)[C@H](CC(N)=O)NC1=O)C(=O)N[C@@H](CCCCN)C(=O)N[C@H]1CSSC[C@H](NC(=O)[C@@H]4CCCN4C(=O)[C@H](CC(=O)O)NC(=O)[C@H](C)NC3=O)C(=O)N[C@@H](C)C(=O)N[C@@H](CCCCN)C(=O)N[C@@H](CCC(=O)O)C(=O)N[C@@H]([C@@H](C)O)C(=O)NCC(=O)N[C@@H](CSSC[C@@H](C(N)=O)NC(=O)[C@H](CCCNC(=N)N)NC(=O)[C@H](CC(N)=O)NC1=O)C(=O)N1CCC[C@H]1C(=O)N[C@@H](Cc1ccc(O)cc1)C(=O)NCC(=O)N[C@@H](CCCCN)C(=O)N2 [[^64Cu]Cu-NOTA-HsTX1[R14A], metal not drawn]
fraction bound to plasma proteins ([1]; MeCN precipitate, % of total blood activity): 5 ± 3%
fraction in blood plasma ([1]; centrifugation 3 min at 14,000 x g): 82 ± 4 % of the whole blood ^64Cu activity
fraction in plasma water ([1]; supernatant after MeCN precipitation, % of total blood activity): 75 ± 3%
toxic effects [2]: did not show toxic effects
plasma activity still present as original compound ([3]; arterial blood plasma, after 4 h): 85%
metabolic stability in arterial blood plasma ([3]; first 2 h): without detectable radioactive metabolic products
original compound in the kidneys ([3]; kidney extract, 4 h): 31%
original compound in the urine ([3]; urine, 4 h): 15%
time for which the 64Cu(II) complex is stable with EDTA [4]: at least 24 h
